Experimental data taken from PMC6277545, “Structural Basis for the Limited Response to Oxidative and Thiol-Conjugating Agents by Triosephosphate Isomerase From the Photosynthetic Bacteria Synechocystis” (Frontiers in Molecular Biosciences, 2018).

Molecular target: the molecule itself
Assay: SEC; Superdex 75 10/300 column, compared with MW standards (conalbumin, ovalbumin, carbonic anhydrase, Ribonuclease A); apparent molecular mass of SyTPI 54 kDa

Row | Protein | stoichiometry N
1 | Arabidopsis thaliana cytosolic triosephosphate isomerase (enzyme, UniProt P48491 1-254, looked up, cytosolic triosephosphate isomerase of Arabidopsis thaliana; also called AtcTPI; cytosolic TPI isoform of A. thaliana) MARKFFVGGNWKCNGTAEEVKKIVNTLNEAQVPSQDVVEVVVSPPYVFLPLVKSTLRSDFFVAAQNCWVKKGGAFTGEVSAEMLVNLDIPWVILGHSERRAILNESSEFVGDKVAYALAQGLKVIACVGETLEEREAGSTMDVVAAQTKAIADRVTNWSNVVIAYEPVWAIGTGKVASPAQAQEVHDELRKWLAKNVSADVAATTRIIYGGSVNGGNCKELGGQADVDGFLVGGASLKPEFIDIIKAAEVKKSA | 2
2 | Synechocystis sp. PCC 6803 triosephosphate isomerase (enzyme, triosephosphate isomerase of Synechocystis sp; PCC 6803, GenBank BAK50928.1; Crystallised with the substrate analog 2-phosphoglycolate (2-PG); also called SyTPI; Synechocystis TPI; source: E. coli BL21 (DE3) Δtpi, purified (HisTrap, PreScission Protease, Superdex 75 gel filtration); not shown: His tag (from the HisTrap column and the modified pET19 vector), N-terminal, cleaved) GPHMRKIIIAGNWKMHKTQAEAQAFLQGFKPLIEDAAESREVVLCVPFTDLSGMSQQLHGGRVRLGAQNVHWEASGAYTGEISAAMLTEIGIHYVVIGHSERRQYFGETDETANLRVLAAQKAGLIPILCVGESKAQRDAGETEQVIVDQVKKGLVNVDQSNLVIAYEPIWAIGTGDTCAATEANRVIGLIREQLTNSQVTIQYGGSVNANNVDEIMAQPEIDGALVGGASLEPQSFARIVNFQP | 2
